Substitutions are numbered along the chain they refer to. Blank lines part the entries; values can stand above or below the molecule they belong to.
Columns and labels:
mouse PD1 [1] = target: T1, mouse PD1 (mouse, UniProt Q02242 25-288); experiment: cell-based or functional assay
T1 sequence (looked up): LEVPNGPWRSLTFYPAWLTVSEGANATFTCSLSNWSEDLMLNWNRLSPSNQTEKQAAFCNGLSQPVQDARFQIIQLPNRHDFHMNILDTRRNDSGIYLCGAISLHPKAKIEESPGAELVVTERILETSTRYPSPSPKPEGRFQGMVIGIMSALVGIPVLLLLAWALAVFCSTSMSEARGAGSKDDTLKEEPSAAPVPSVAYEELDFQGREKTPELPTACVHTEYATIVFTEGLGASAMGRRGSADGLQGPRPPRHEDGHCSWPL

mouse CD20 [2] = target: T2, mouse CD20 (mouse, UniProt P19437 1-291); experiment: flow cytometry on MC38/mCD20 cells
T2 construct: whole, on cells; also called mCD20; murine CD20
T2 sequence (looked up): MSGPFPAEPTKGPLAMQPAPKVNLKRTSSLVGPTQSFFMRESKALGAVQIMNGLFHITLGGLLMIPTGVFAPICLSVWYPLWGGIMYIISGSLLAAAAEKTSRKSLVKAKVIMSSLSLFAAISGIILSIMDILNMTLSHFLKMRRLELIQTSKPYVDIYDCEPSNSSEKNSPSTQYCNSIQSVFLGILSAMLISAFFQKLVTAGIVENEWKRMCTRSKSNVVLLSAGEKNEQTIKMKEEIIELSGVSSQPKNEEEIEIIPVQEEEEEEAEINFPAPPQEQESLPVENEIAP
Method: (§1) Cells (HEK 293, MC38 over-expressing mCD20 or Jurkat over-expressing mPD1) were resuspended in FACS wash (PBS with 1% FBS) at 1×10⁶ cells/mL. The staining was performed in 1×10⁵ cells per well. The antibodies were diluted with a ratio of 1:5 from a starting concentration of 1.3×10⁻⁰⁷ M. The diluted antibodies were then added into the wells containing cells. Cells were stained for 30 min at 2-8° C. and washed twice with FACS wash buffer. APC-conjugated goat anti-human IgG (Jackson Immuno Research, 109-607-003, 1:400) was added to stain the cells for 30 min at 2-8° C. Following washing, cells were fixed in 2% paraformaldehyde for 30 min at 2-8° C. After two washes, stained cells were analyzed using BD LSRFortessa™ FACS instrument. The results were analyzed by FlowJo. FSC/SSC gates were used to select mononuclear cells.

mouse PD1 [3] = target: T1, mouse PD1; experiment: flow cytometry on Jurkat/mPD1 cells
Method: as §1

mouse CD20 [4] = target: T2, mouse CD20; experiment: flow cytometry on HEK293/mCD20 cells
Method: as §1

Max % inhibition, luciferase bioassay, 2.5 nM CD3 bsAb (mouse PD1 [1]): 3% | Max MFI (mouse CD20 [2]): 140 MFI | Max MFI (mouse PD1 [3]): 90.4 MFI | Max MFI (mouse CD20 [4]): 14.3 MFI
Molecule: REGN1932 (hIgG1 control) (antibody)

Max MFI (mouse CD20 [2]): 94.9 MFI
Molecule: Single arm mPDL1 WT-Fc (from UniProt Q9EP73 19-239) (Fc fusion)

EC50 (mouse CD20 [2]): 18 nM | Max MFI (mouse CD20 [2]): 48300 MFI | Max MFI (mouse PD1 [3]): 198 MFI
B1: 18B12-scFvFc (scFv, V domains shown)
VH: QVQLQQPGAELVRPGTSVKLSCKASGYTFTSYWMHWIKQRPGQGLEWIGVIDPSDNYTKYNQKFKGKATLTVDTSSSTAYMQLSSLTSEDSAVYFCAREGYYGSSPWFAYWGQGTLVTVSS
VL: QIVMSQSPAILSASPGEKVTMTCRARSSVSYIHWYQQKPGSSPKPWIYATSNLASGVPGRFSGSGSGTSYSLTITRVEAEDAATYYCQQWSSKPPTFGGGTKLEIK
binding result (mouse PD1 [3]): no binding (tested: starting concentration of 1.3×10^-07 M)

Max % inhibition, luciferase bioassay, 1nM CD3 bsAb (mouse PD1 [1]): 19% | Max % inhibition, luciferase bioassay, 2.5 nM CD3 bsAb (mouse PD1 [1]): 0% | EC50 (mouse CD20 [2]): 1.71 nM | Max MFI (mouse CD20 [2]): 42000 MFI | Max MFI (mouse PD1 [3]): 118 MFI | EC50 (mouse CD20 [4]): 13.5 nM | Max MFI (mouse CD20 [4]): 28200 MFI
B2: 1B12IgG1EN (antibody)
heavy 1: QVQLQQPGAELVRPGTSVKLSCKASGYTFTSYWMHWIKQRPGQGLEWIGVIDPSDNYTKYNQKFKGKATLTVDTSSSTAYMQLSSLTSEDSAVYFCAREGYYGSSPWFAYWGQGTLVTVSSASTKGPSVFPLAPSSKSTSGGTAALGCLVKDYFPEPVTVSWNSGALTSGVHTFPAVLQSSGLYSLSSVVTVPSSSLGTQTYICNVNHKPSNTKVDKKVEPKSCDKTHTCPPCPAPEAEGAPSVFLFPPKPKDTLMISRTPEVTCVVVDVSHEDPEVKFNWYVDGVEVHNAKTKPREEQYNSTYRVVSVLTVLHQDWLNGKEYKCKVSNKALPSSIEKTISKAKGQPREPQVYTLPPCRDELTKNQVSLWCLVKGFYPSDIAVEWESNGQPENNYKTTPPVLDSDGSFFLYSKLTVDKSRWQQGNVFSCSVMHEALHNHYTQKSLSLSPGK
heavy 2: B2 heavy 1 with Y353C, C358S, W370S, L372A, Y411V, H439R, Y440F
light: QIVMSQSPAILSASPGEKVTMTCRARSSVSYIHWYQQKPGSSPKPWIYATSNLASGVPGRFSGSGSGTSYSLTITRVEAEDAATYYCQQWSSKPPTFGGGTKLEIKRTVAAPSVFIFPPSDEQLKSGTASVVCLLNNFYPREAKVQWKVDNALQSGNSQESVTEQDSKDSTYSLSSTLTLSKADYEKHKVYACEVTHQGLSSPVTKSFNRGEC
notes: Control, bivalent anti-mCD20 IgG with knob and hole-star heavy chains; also called 1B12lgG1EN
binding result (mouse PD1 [3]): no binding (tested: starting concentration of 1.3×10^-07 M)

— patent US20230279153A1 (Regeneron, published 2023)
